Measurements reported in patent US20190359687A1 (Bayer, published 2019).

How the values were obtained:
[1] = target: T1, Cynomolgus monkey glycophorin A on Cynomolgus monkey red blood cells (Cynomolgus monkey); assay: partition to Cyno RBC, human HemA plasma, 1 min;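 note: FVIII fusion spiked at 1 IU/mL into RBC suspension at whole-blood density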
T1 construct: whole, on cells; also called Cyno GPA; Cyno RBC

[2] = target: T1, Cynomolgus monkey glycophorin A on …; assay: partition to Cyno RBC, human HemA plasma, 5 min;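 note: FVIII fusion spiked at 1 IU/mL into RBC suspension at whole-blood density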
[3] = target: T2, human glycophorin A on human red blood cells (human, UniProt P02724 20-150); assay: partition to human RBC, human HemA plasma, 1 min
T2 construct: whole, on cells; also called human GPA; huGPA
T2 sequence (looked up): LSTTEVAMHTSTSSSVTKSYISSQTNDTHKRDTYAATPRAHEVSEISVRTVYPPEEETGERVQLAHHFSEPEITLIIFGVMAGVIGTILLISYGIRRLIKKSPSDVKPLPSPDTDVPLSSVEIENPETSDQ
Method: (§1) The supernatant containing plasma, platelets and white blood cells was discarded and the red blood cell pellet was resuspended in 10 pellet volumes of PBS (50 mM Phosphate buffer, pH7.4, 150 mM NaCl). The red blood cells were then pelleted by slow speed centrifugation and the red blood cells re-suspended in 10 volumes of PBS. This washing step was repeated 4 more times and the red blood cells finally resuspended in a volume of plasma from Hemophilia patients with less than 1% of normal levels of FVIII (GeorgeKing Bio-Medical, Overland Park, Kans.) to generate a total volume equal to the initial blood volume such that the RBC density was equal to that of normal whole blood. BDD and RBC targeted FVIII molecules were then spiked into RBC suspension in HemA plasma at 1 IU/mL, and incubated at room temperature for 2-3 hours with gentle rotation. […] An additional control was performed in which BDD or RBC targeted FVIII molecules were added at 11U/ml into the same human hemophilia A plasma and incubated for 5 minutes and 180 mins. These samples were used to determine the input FVIII activity in the presence of plasma which was used to calculate the percentage of the molecule that was bound to RBC. All plasma samples were then assayed together for FVIII activity using the Coatest SP assay (DiaPharma, Columbus, Ohio). The assay was performed following the manufacturer's instructions in a 96-well plate format. […] The plate was incubated at 37° C. for 10 minutes with shaking between each reagent addition. […] The amount of FVIII activity in the plasma reflects the amount of unbound FVIII. The FVIII activity of the same molecule spiked in to Hemophilia A plasma alone (no RBC) and incubated for 5 minutes was normalized to 100%.

[4] = target: T2, human glycophorin A on human red blood …; assay: partition to human RBC, human HemA plasma, 5 min
Method: as §1

[5] = target: T1, Cynomolgus monkey glycophorin A on …; assay: partition to Cyno RBC, human HemA plasma, 15 min;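 note: FVIII fusion spiked at 1 IU/mL into RBC suspension at whole-blood density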
[6] = target: T1, Cynomolgus monkey glycophorin A on …; assay: partition to Cyno RBC, human HemA plasma, 30 min;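 note: FVIII fusion spiked at 1 IU/mL into RBC suspension at whole-blood density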
Method: To evaluate partition to cynomolgus monkey or human red blood cells, whole blood was draw from Cynomolgus monkey or normal human volunteers in to anticoagulant with 4% sodium citrate (Sigma, St Louis, Mo.). The red blood cells were purified by layering the whole blood on to ficoll followed by low speed centrifugation. The supernatant containing plasma, platelets and white blood cells was discarded and the red blood cell pellet was resuspended in 10 pellet volumes of PBS (50 mM Phosphate buffer, pH7.4, 150 mM NaCl). The red blood cells were then pelleted by slow speed centrifugation and the red blood cells re-suspended in 10 volumes of PBS. This washing step was repeated 4 more times and the red blood cells finally resuspended in a volume of plasma from Hemophilia patients with less than 1% of normal levels of FVIII (GeorgeKing Bio-Medical, Overland Park, Kans.) to generate a total volume equal to the initial blood volume such that the RBC density was equal to that of normal whole blood. BDD and RBC targeted FVIII molecules were then spiked into RBC suspension in HemA plasma at 1 IU/mL, and incubated at room temperature for 2-3 hours with gentle rotation. […] An additional control was performed in which BDD or RBC targeted FVIII molecules were added at 11U/ml into the same human hemophilia A plasma and incubated for 5 minutes and 180 mins. These samples were used to determine the input FVIII activity in the presence of plasma which was used to calculate the percentage of the molecule that was bound to RBC. All plasma samples were then assayed together for FVIII activity using the Coatest SP assay (DiaPharma, Columbus, Ohio). The assay was performed following the manufacturer's instructions in a 96-well plate format. […] The plate was incubated at 37° C. for 10 minutes with shaking between each reagent addition.

[7] = target: T1, Cynomolgus monkey glycophorin A on …; assay: partition to Cyno RBC, human HemA plasma, 60 min;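 note: FVIII fusion spiked at 1 IU/mL into RBC suspension at whole-blood density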
[8] = target: T2, human glycophorin A on human red blood …; assay: partition to human RBC, human HemA plasma, 15 min
Method: as §1

[9] = target: T2, human glycophorin A on human red blood …; assay: partition to human RBC, human HemA plasma, 30 min
[10] = target: T2, human glycophorin A on human red blood …; assay: partition to human RBC, human HemA plasma, 60 min
Method: as §1

[11] = target: T1, Cynomolgus monkey glycophorin A on …; assay: partition to Cyno RBC, human HemA plasma, 120 min;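 note: FVIII fusion spiked at 1 IU/mL into RBC suspension at whole-blood density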
[12] = target: T2, human glycophorin A on human red blood …; assay: partition to human RBC, human HemA plasma, 120 min
Method: as §1

[13] = target: T2, human glycophorin A on human red blood …; assay: partition to human RBC, human HemA plasma, 120 min; remark: listed apart in the source
Method: as §1

% bound to Cyno RBC [1]: 30.9%
% bound to Cyno RBC [2]: 38.2%
percentage bound to human RBC [3]: 19.3%
percentage bound to human RBC [4]: 34.4%
% bound to Cyno RBC [5]: 40.6%
% bound to Cyno RBC [6]: 43.2%
% bound to Cyno RBC [7]: 52.9%
percentage bound to human RBC [8]: 52%
percentage bound to human RBC [9]: 57.7%
percentage bound to human RBC [10]: 66.9%
% bound to Cyno RBC [11]: 55.1%
percentage bound to human RBC [12]: 71.8%
percentage bound to human RBC [13]: 71.8%
B1: TPP-9900 FVIII-scFv fusion protein (other)
chain: DIQLTQSPSFLSASVGDRVTITCRASSSVRYIYWFQQKPGKAPKLLIYATSFRQSGVPSRFSGSGSGTEYTLTISSLQPEDFATYYCHQRNSFPYTFGQGTKLEIKGGGGSGGGGSGGGGSGGGGSEVQLVQSGAEVKKPGASVKVSCKASGYTFTTYAIHWVRQAPGQGLEWMGYINPSSGYTRYNPKFKGRVTMTRDKSTSTAYMELRSLRSDDTAVYYCWTGTRDYWGQGTTVTVSSGGGSGGGGSGLVPRGSGGGSGGGGSGATRRYYLGAVELSWDYMQSDLGELPVDARFPPRVPKSFPFNTSVVYKKTLFVEFTDHLFNIAKPRPPWMGLLGPTIQAEVYDTVVITLKNMASHPVSLHAVGVSYWKASEGAEYDDQTSQREKEDDKVFPGGSHTYVWQVLKENGPMASDPLCLTYSYLSHVDLVKDLNSGLIGALLVCREGSLAKEKTQTLHKFILLFAVFDEGKSWHSETKNSLMQDRDAASARAWPKMHTVNGYVNRSLPGLIGCHRKSVYWHVIGMGTTPEVHSIFLEGHTFLVRNHRQASLEISPITFLTAQTLLMDLGQFLLFCHISSHQHDGMEAYVKVDSCPEEPQLRMKNNEEAEDYDDDLTDSEMDVVRFDDDNSPSFIQIRSVAKKHPKTWVHYIAAEEEDWDYAPLVLAPDDRSYKSQYLNNGPQRIGRKYKKVRFMAYTDETFKTREAIQHESGILGPLLYGEVGDTLLIIFKNQASRPYNIYPHGITDVRPLYSRRLPKGVKHLKDFPILPGEIFKYKWTVTVEDGPTKSDPRCLTRYYSSFVNMERDLASGLIGPLLICYKESVDQRGNQIMSDKRNVILFSVFDENRSWYLTENIQRFLPNPAGVQLEDPEFQASNIMHSINGYVFDSLQLSVCLHEVAYWYILSIGAQTDFLSVFFSGYTFKHKMVYEDTLTLFPFSGETVFMSMENPGLWILGCHNSDFRNRGMTALLKVSSCDKNTGDYYEDSYEDISAYLLSKNNAIEPRSFSQNDENQSPRSFQKKTRHYFIAAVERLWDYGMSSSPHVLRNRAQSGSVPQFKKVVFQEFTDGSFTQPLYRGELNEHLGLLGPYIRAEVEDNIMVTFRNQASRPYSFYSSLISYEEDQRQGAEPRKNFVKPNETKTYFWKVQHHMAPTKDEFDCKAWAYFSDVDLEKDVHSGLIGPLLVCHTNTLNPAHGRQVTVQEFALFFTIFDETKSWYFTENMERNCRAPCNIQMEDPTFKENYRFHAINGYIMDTLPGLVMAQDQRIRWYLLSMGSNENIHSIHFSGHVFTVRKKEEYKMALYNLYPGVFETVEMLPSKAGIWRVECLIGEHLHAGMSTLFLVYSNKCQTPLGMASGHIRDFQITASGQYGQWAPKLARLHYSGSINAWSTKEPFSWIKVDLLAPMIIHGIKTQGARQKFSSLYISQFIIMYSLDGKKWQTYRGNSTGTLMVFFGNVDSSGIKHNIFNPPIIARYIRLHPTHYSIRSTLRMELMGCDLNSCSMPLGMESKAISDAQITASSYFTNMFATWSPSKARLHLQGRSNAWRPQVNNPKEWLQVDFQKTMKVTGVTTQGVKSLLTSMYVKEFLISSSQDGHQWTLFFQNGKVKVFQGNQDSFTPVVNSLDPPLLTRYLRIHPQSWVHQIALRMEVLGCEAQDLYGGGSGGGGSGLVPRGSGGGSGGGGSGDIQLTQSPSFLSASVGDRVTITCRASSSVRYIYWFQQKPGKAPKLLIYATSFRQSGVPSRFSGSGSGTEYTLTISSLQPEDFATYYCHQRNSFPYTFGQGTKLEIKGGGGSGGGGSGGGGSGGGGSEVQLVQSGAEVKKPGASVKVSCKASGYTFTTYAIHWVRQAPGQGLEWMGYINPSSGYTRYNPKFKGRVTMTRDKSTSTAYMELRSLRSDDTAVYYCWTGTRDYWGQGTTVTVSS
